The source of these data is paper PMC4913355 (Methods in enzymology, 2015).

Sequences and labels used below:
B1: Skp (natural protein, E. coli, UniProt P0AEU7 21-161, looked up)
chain: ADKIAIVNMGSLFQQVAQKTGVSNTLENEFKGRASELQRMETDLQAKMKKLQSMKAGSDRTKLEKDVMAQRQTFAQKAQAFEQDRARRSNEERGKLVTRIQTAVKSVANSQDIDLVVDANAVAYNSSDVKDITADVLKQVK

Series [1] concerns the molecule itself. The series is described as follows: small-angle neutron scattering.
The series “Skp” concerns the target B1. The series is described as follows: contrast variation small-angle neutron scattering.

The stoichiometry N is the number of molecules, sites or subunits per partner or assembly. Regarding B1, the “stoichiometry N” value in series [1] amounted to 3.

B2: unfolded OmpA, deuterated (natural protein, E. coli, UniProt P0A910 22-346, looked up)
chain: APKDNTWYTGAKLGWSQYHDTGFINNNGPTHENQLGAGAFGGYQVNPYVGFEMGYDWLGRMPYKGSVENGAYKAQGVQLTAKLGYPITDDLDIYTRLGGMVWRADTKSNVYGKNHDTGVSPVFAGGVEYAITPEIATRLEYQWTNNIGDAHTIGTRPDNGMLSLGVSYRFGQGEAAPVVAPAPAPAPEVQTKHFTLKSDVLFNFNKATLKPEGQAALDQLYSQLSNLDPKDGSVVVLGYTDRIGSDAYNQGLSERRAQSVVDYLISKGIPADKISARGMGESNPVTGNTCDNVKQRAALIDCLAPDRRVEIEVKGIKDVVTQPQA
modifications: partially deuterated (estimated 50 % ± 5 %)
For the molecule B2, the “stoichiometry N” value with Skp is 3 Skp monomers per uOMP.

B3: unfolded OmpW, deuterated (natural protein, UniProt P0A915 22-212, looked up)
chain: HEAGEFFMRAGSATVRPTEGAGGTLGSLGGFSVTNNTQLGLTFTYMATDNIGVELLAATPFRHKIGTRATGDIATVHHLPPTLMAQWYFGDASSKFRPYVGAGINYTTFFDNGFNDHGKEAGLSDLSLKDSWGAAGQVGVDYLINRDWLVNMSVWYMDIDTTANYKLGGAQQHDSVRLDPWVFMFSAGYRF
modifications: partially deuterated (estimated 50 % ± 5 %)
Turning to B3, the “stoichiometry N” value with Skp was determined as 3 Skp monomers per uOMP.
